Tested on: small intestinal immune cells
Test: Droplet-based scRNA-seq of small intestinal immune cells (LP and PP), OVA vs PBS, clustering and differential expression
Assay type: in vivo, mouse
Conditions: cluster ID 12, LP; for LN (average fold change): OVA vs PBS
Source text: To comprehensively characterize small intestinal immune cells, Applicants generated scRNA-Seq profiles for 58,067 immune cells collected from lamina propria (LP) and Peyer's patch (PP) regions at steady state and after induction of a type 2 inflammatory reaction to ovalbumin (OVA) (Brandt et al., 2003) (FIGS. 1A and 8A). To ensure sufficient representation of rare cells, Applicants combined a normalization strategy—removing by flow sorting either a portion of IgD+ naïve B cells, which are the most abundant cell type in PPs, or all CD19+ and CD3+ T cells (FIG. 8B, Methods)—with profiling of a sufficiently large number of cells number (P>0.99 to recover at least 15 cells from each cluster, Methods) by massively parallel scRNA-seq (Haber et al., 2017) (Methods). Applicants obtained 36,797 and 21,270 high quality cells passing initial filtering (Methods) from PP and LP regions, respectively.
Overall, Applicants annotated 27 cell subsets across the two compartments, spanning T cells, B cells, ILCs, dendritic cells (DCs), myeloid cells and stromal cells, in frequencies ranging from 0.07% to 14%. Briefly, Applicants first partitioned the cells from the PP regions by unsupervised clustering (Methods) into 46 clusters, retained the 97% of cells that were robustly assigned cell identities in each cluster (Methods), assigned the cells from the LP regions to the 46 clusters using a classifier (Methods), and visualized the data with scvis (Ding et al., 2018), a deep generative model-based method (FIGS. 1B and 8C, Methods). Next, Applicants identified genes that were differentially expressed between the cells in each cluster and the remaining cells (Table 1, Methods), as well as between pairs of clusters (Table 2), to elucidate identities of similar cell types/states. Applicants excluded from downstream analysis clusters mostly consisting of contaminants from epithelium, likely doublets, or cells with a small number of Unique Molecular Identifiers (UMIs) (FIGS. 1C and 8D), or lacking distinct markers (Methods). Altogether, Applicants retained 27 clusters spanning 85% of the cells and each associated with distinct marker genes (FIG. 8E, Methods).
To induce allergic reaction to OVA, 6 to 7 weeks old mice were sensitized twice, two weeks apart, with 50 μg of OVA plus 1 mg of aluminum potassium sulfate adjuvant via intraperitoneal injection. Two weeks later, mice were orally administered with 50 mg of OVA on every other day for a total of five times. 1 μg of α-CGRP peptide was administered simultaneously when indicated. Mice were deprived of food for 3-4 hours in cages with wood chip bedding for limiting antigen degradation in the stomach before each intragastric challenge.
Isolation of cells from Peyer's patches (PPs). Peyer's patches (PPs) were carefully dissected from the small intestine under a stereo microscope using a fine scissor, pierced once with a fine forcep. Tissues were digested in freshly made digestion buffer (RPMI-1640 containing 100 μg/ml Liberase™ and 50 μg/ml DNase I at 37° C. on a roto-mixer. After 15 min, tissues were very gently mixed using a 1 ml pipette. The supernatant was collected and added to ice-cold MACS buffer (pH 7.4; PBS plus 2% FCS and 2 mM EDTA). Pre-warmed (37° C.) fresh digestion buffer was added to the remaining tissues. After rotation at 37° C. for 15 min, the mixture was vigorously mixed using a 1 ml pipette for 1 min. Supernatants from the two steps were combined and passed through 70 μm filters and stained for FACS (below).
Isolation of cells from the lamina propria (LP). The small intestines were opened longitudinally and washed in ice-cold PBS. For scRNA-seq, roughly 0.5 cm of fragments from each of the distal, middle and proximal regions without visible PPs were collected. Epithelial cells were dissociated by tissue rotation in pre-warmed (37° C.) PBS containing 10 mM EDTA at 37° C. for 15 min, followed by additional incubation on ice for 15 min. Tissues were then shaken vigorously. […]

B1: OVA (protein, UniProt P01012 2-386, looked up)
Ovalbumin: GSIGAASMEFCFDVFKELKVHHANENIFYCPIAIMSALAMVYLGAKDSTRTQINKVVRFDKLPGFGDSIEAQCGTSVNVHSSLRDILNQITKPNDVYSFSLASRLYAEERYPILPEYLQCVKELYRGGLEPINFQTAADQARELINSWVESQTNGIIRNVLQPSSVDSQTAMVLVNAIVFKGLWEKAFKDEDTQAMPFRVTEQESKPVQMMYQIGLFRVASMASEKMKILELPFASGTMSMLVLLPDEVSGLEQLESIINFEKLTEWTSSNVMEERKIKVYLPRMKMEEKYNLTSVLMAMGITDVFSSSANLSGISSAESLKISQAVHAAHAEINEAGREVVGSAEAGVDAASVSEEFRADHPFLFCIKHIATNAVLFFGRCVSP
percentage of expressing cells in OVA-treated group (gene Ero1l): 0.399
LN (average fold change) (gene Ero1l): 0.949
percentage of expressing cells in OVA-treated group (gene Fgl2): 0.61
LN (average fold change) (gene Fgl2): 0.609
percentage of expressing cells in OVA-treated group (gene Fth1): 0.963
LN (average fold change) (gene Fth1): −0.236
percentage of expressing cells in OVA-treated group (gene Fxyd5): 0.564
LN (average fold change) (gene Fxyd5): 0.407
percentage of expressing cells in OVA-treated group (gene Galnt12): 0.086
LN (average fold change) (gene Galnt12): −0.960
percentage of expressing cells in OVA-treated group (gene Gapdh): 0.561
LN (average fold change) (gene Gapdh): 0.420
percentage of expressing cells in OVA-treated group (gene Gimap5): 0.338
LN (average fold change) (gene Gimap5): 0.779
percentage of expressing cells in OVA-treated group (gene Glul): 0.184
LN (average fold change) (gene Glul): −1.009
percentage of expressing cells in OVA-treated group (gene Gmfg): 0.31
LN (average fold change) (gene Gmfg): 0.821
percentage of expressing cells in OVA-treated group (gene Gpr132): 0.399
LN (average fold change) (gene Gpr132): −0.573
percentage of expressing cells in OVA-treated group (gene Gpx4): 0.818
LN (average fold change) (gene Gpx4): −0.345
percentage of expressing cells in OVA-treated group (gene H2-Q4): 0.246
LN (average fold change) (gene H2-Q4): −0.675
percentage of expressing cells in OVA-treated group (gene H2afj): 0.433
LN (average fold change) (gene H2afj): 0.452
percentage of expressing cells in OVA-treated group (gene H3f3b): 0.982
LN (average fold change) (gene H3f3b): 0.286
percentage of expressing cells in OVA-treated group (gene Hccs): 0.243
LN (average fold change) (gene Hccs): 1.079
percentage of expressing cells in OVA-treated group (gene Hmgb1): 0.552
LN (average fold change) (gene Hmgb1): −0.400
percentage of expressing cells in OVA-treated group (gene Igha): 0.951
LN (average fold change) (gene Igha): 0.407
percentage of expressing cells in OVA-treated group (gene Igkc): 0.985
LN (average fold change) (gene Igkc): 0.474
percentage of expressing cells in OVA-treated group (gene Iglc1): 0.184
LN (average fold change) (gene Iglc1): −0.692
percentage of expressing cells in OVA-treated group (gene Irf1): 0.069
LN (average fold change) (gene Irf1): −1.336
percentage of expressing cells in OVA-treated group (gene Itk): 0.515
LN (average fold change) (gene Itk): 0.495
percentage of expressing cells in OVA-treated group (gene Jarid2): 0.156
LN (average fold change) (gene Jarid2): 1.269
percentage of expressing cells in OVA-treated group (gene Kdm6b): 0.65
LN (average fold change) (gene Kdm6b): 0.555
percentage of expressing cells in OVA-treated group (gene Kif23): 0.102
LN (average fold change) (gene Kif23): −1.129
percentage of expressing cells in OVA-treated group (gene Klf4): 0.336
LN (average fold change) (gene Klf4): −0.566
percentage of expressing cells in OVA-treated group (gene Lmna): 0.045
LN (average fold change) (gene Lmna): −1.627
percentage of expressing cells in OVA-treated group (gene Ly6a): 0.055
LN (average fold change) (gene Ly6a): −1.208
percentage of expressing cells in OVA-treated group (gene Maff): 0.399
LN (average fold change) (gene Maff): −0.518
percentage of expressing cells in OVA-treated group (gene Mat2a): 0.288
LN (average fold change) (gene Mat2a): −0.572
percentage of expressing cells in OVA-treated group (gene Naca): 0.839
LN (average fold change) (gene Naca): 0.299
percentage of expressing cells in OVA-treated group (gene Ndfip1): 0.247
LN (average fold change) (gene Ndfip1): 0.765
percentage of expressing cells in OVA-treated group (gene Neurl3): 0.328
LN (average fold change) (gene Neurl3): −0.470
percentage of expressing cells in OVA-treated group (gene Nfkb1): 0.81
LN (average fold change) (gene Nfkb1): 0.501
percentage of expressing cells in OVA-treated group (gene Nr4a2): 0.383
LN (average fold change) (gene Nr4a2): 0.702
percentage of expressing cells in OVA-treated group (gene Nrgn): 0.284
LN (average fold change) (gene Nrgn): 1.042
percentage of expressing cells in OVA-treated group (gene Nxpe3): 0.202
LN (average fold change) (gene Nxpe3): 0.974
percentage of expressing cells in OVA-treated group (gene Pfn1): 0.974
LN (average fold change) (gene Pfn1): 0.233
percentage of expressing cells in OVA-treated group (gene Pgm2l1): 0.065

From patent publication US20220143148A1, “COMPOSITIONS AND METHODS FOR MODULATING CGRP SIGNALING TO REGULATE INTESTINAL INNATE LYMPHOID CELLS” (The Broad Institute, Inc., priority 2019, published 2022)
